We go through 20 molecules from US20040018204A1.

The target of one assay is mouse B6 MHC class I antigens (H-2b: D^b or K^b) on the surface of RMA-S cells (mouse). Description: binding of 9mer peptides within p117-139 to mouse B6 (H-2b) class I antigens; RMA-S assay as for Table XLVII.
Take APYLPSCLE [WT1 peptide P131-139 (…)]: the Binding Affinity to Mouse MHC Class I came to 1%. QARMFPNAP [WT1 peptide P124-132 (…)] had a Binding Affinity to Mouse MHC Class I of 1%. PNAPYLPSC [WT1 peptide P129-137 (…)] registered a Binding Affinity to Mouse MHC Class I of 1%.

Take SSGQARMFP [WT1 peptide P121-129 (…)]: the Binding Affinity to Mouse MHC Class I stood at 1%. For the molecule FPNAPYLPS [WT1 peptide P128-136 (…)], the Binding Affinity to Mouse MHC Class I is 1%. Same read-out and setting: to NAPYLPSCL [WT1 peptide P130-138 (…)] belongs 79%; to QASSGQARM [WT1 peptide P119-127 (…)], 2%; to MFPNAPYLP [WT1 peptide P127-135 (…)], 2%. Same read-out and setting: to ARMFPNAPY [WT1 peptide P125-133 (…)] belongs 1%; to SQASSGQAR [WT1 peptide P118-126 (…)], 2%; to PSQASSGQA [WT1 peptide P117-125 (…)], 2%.

As for ASSGQARMF [WT1 peptide P120-128 (…)], the Binding Affinity to Mouse MHC Class I came out at 1%.

A further assay shares this target. Description: RMA-S class I stabilisation, peptide 25 ug/ml, flow cytometry with FITC anti-D^b or anti-K^b, MFI against medium alone. In general terms: A flow cytometer gives signals particle by particle.
Turning to NQMNLGATL [WT1 peptide p239-247 (…)], the Binding Affinity to Mouse MHC Class I (% increase of class I on RMA-S cells) is 1%. Molecule ALLPAVPSL [WT1 peptide p10-18 human (…)] returned a Binding Affinity to Mouse MHC Class I (% increase of class I on RMA-S cells) of 2.2%. The same measure, in the same setting: as for NLYQMTSQL [WT1 peptide p225-233 (…)], the figure is 5.8%; as for CMTWNQMNL [WT1 peptide p235-243 (…)], 33.6%; as for YSSDNLYQM [WT1 peptide p221-229 (…)], 0.8%. In the case of SCLESQPAI [WT1 peptide p136-144 human (…)], the Binding Affinity to Mouse MHC Class I (% increase of class I on RMA-S cells) was determined as 52%. Same read-out and setting: as for GCNKRYFKL [WT1 peptide p329-337 (…)], the figure is 1.2%; as for QMTSQLECM [WT1 peptide p228-236 (…)], 1.2%.
